In PMC6477152 (2019):

B1: FIP200ΔN1115:Luciferase [human] / GST:NDP52 [human] (parent complex)
chain 1: ENYQVGLAELRTLMTIEKDQCISELISRHEEESNILKAELNKVTSLHNQAFEIEKNLKEQIIELQSKLDSELSALERQKDEKITQQEEKYEAIIQNLEKDRQKLVSSQEQDREQLIQKLNCEKDEAIQTALKEFKLEREVVEKELLEKVKHLENQIAKSPAIDSTRGDSSSLVAELQEKLQEEKAKFLEQLEEQEKRKNEEMQNVRTSLIAEQQTNFNTVLTREKMRKENIINDLSDKLKSTMQQQERDKDLIESLSEDRARLLEEKKKLEEEVSKLRSSSFVPSPYVATAPELYGACAPELPGESDRSAVETADEGRVDSAMETSMMSVQENIHMLSEEKQRIMLLERTLQLKEEENKRLNQRLMSQSMSSVSSRHSEKIAIRDFQVGDLVLIILDERHDNYVLFTVSPTLYFLHSESLPALDLKPGEGASGASRRPWVLGKVMEKEYCQAKKAQNRFKVPLGTKFYRVKAVSWNKKV
chain 2: MEETIKDPPTSAVLLDHCHFSQVIFNSVEKFYIPGGDVTCHYTFTQHFIPRRKDWIGIFRVGWKTTREYYTFMWVTLPIDLNNKSAKQQEVQFKAYYLPKDDEYYQFCYVDEDGVVRGASIPFQFRPENEEDILVVTTQGEVEEIEQHNKELCKENQELKDSCISLQKQNSDMQAELQKKQEELETLQSINKKLELKVKEQKDYWETELLQLKEQNQKMSSENEKMGIRVDQLQAQLSTQEKEMEKLVQGDQDKTEQLEQLKKENDHLFLSLTEQRKDQKKLEQTVEQMKQNETTAMKKQQELMDENFDLSKRLSENEIICNALQRQKERLEGENDLLKRENSRLLSYMGLDFNSLPYQVPTSDEGGARQNPGLAYGNPYSGIQESSSPSPLSIKKCPICKADDICDHTLEQQQMQPLCFNCPICDKIFPATEKQIFEDHVFCHSL

Variants of: B1
Test: LUMIER assay; HEK293ET cell lysates; bacterially expressed GST bait; read off a plot

Variant	response [fold binding]
chain 1 L347A	~42
chain 1 T350A	~51
chain 1 Q352A	~44
